In US20100021473A1 (DOMANTIS, published 2010):

What was measured:
[1] = biological target: T1, CD38 immobilised on Biacore CM5 chip (UniProt P28907 43-300, limits assumed); experiment: Biacore, CD38 immobilised
T1 construct: also called DOM11
Description: (§1) Anti-CD38, anti-CEA and anti-CD56 dAbs that were identified as FACS positive clones were in addition analysed by Biacore using the following procedure. The CM5 chip surface was activated by flushing 1:1 EDC/NHS (0.4M1-ethyl-3-(3-dimenthylaminopropyl)-carbodiimide in water; 0.1 M N-hydroxysuccinimide in water) at a flow rate of 5 uL/min for 10 minute contact time. CD38 was immobilised at 500 nM in Acetate buffer pH4 at 5 uL/min this was repeated until the RUs reached between 500 and 1000 (low density). CEA and CD56 were coupled in acetate buffer pH 4.5. Any excess reactive groups were deactivated by running 1M ethanolamine-HCl over the CM5 chip (again 5 uL/min for 7 mins). The affinities of the anti-CD38, anti-CEA and anti-CD56 dAbs were measured on the biacore as described above.
Affinity maturation libraries were created for the anti-CD38 dAbs DOM11-3 and DOM11-30 by error prone PCR. […] Initial screening was carried out by BIAcore (as described previously) and subsequently by FACS.

[2] = biological target: T1, CD38 immobilised on Biacore CM5 chip; experiment: SPR (Biacore), CD38 immobilised on CM5 chip
Description: as §1

[3] = biological target: T2, CD138 on cells (UniProt P18827 23-310); experiment: FACS on RPMI cells (CD38+/138+)
T2 construct: whole, on cells; Endogenous CD138 on cell lines used in FACS; also called DOM12; syndecan-1
T2 sequence (looked up): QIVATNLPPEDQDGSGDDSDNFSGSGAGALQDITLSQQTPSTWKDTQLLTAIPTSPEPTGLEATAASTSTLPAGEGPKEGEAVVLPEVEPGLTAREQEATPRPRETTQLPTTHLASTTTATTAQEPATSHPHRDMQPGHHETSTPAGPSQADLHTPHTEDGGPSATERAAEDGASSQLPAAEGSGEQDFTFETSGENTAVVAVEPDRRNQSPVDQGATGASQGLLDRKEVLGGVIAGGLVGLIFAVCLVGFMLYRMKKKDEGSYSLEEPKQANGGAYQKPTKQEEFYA
Description: (§2) All dAbs were analysed by FACS on antigen positive and negative cell lines using the following method.
(§3) The determination of cell binding by FACS was carried out as follows: cells were centrifuged at 250 g for 5 minutes and the growth medium was removed. The cells were resuspended in FACS incubation buffer at 4° C. at a density of 2×10⁶ cells/ml. The cells were blocked by incubating for 15 minutes at 4° C. in FACS incubation buffer. Fifty microliters of 2× stock of primary antibody (anti-CD38 FITC, anti-CD138 FITC or mIgG1 FITC conjugated isotype control (all BD Biosciences) was added; or dAb was added to cells in FACS incubation buffer and incubated for 30-60 minutes at 4° C. The cells were then washed once in FACS incubation buffer. One hundred microliters of secondary antibody (rabbit anti-Vk) was added to cells in FACS incubation buffer and incubated 30-60 minutes at 4° C. The cells were washed once in FACS incubation buffer. Then 100 ul of 1× tertiary antibody was added to the cells in FACS incubation buffer and incubated for 30-60 mins at 4° C. (for dAbs the tertiary antibody is anti-rabbit FITC (Sigma)). The cells were washed twice in FACS incubation buffer. The cell pellet was resuspend in 200 ul FACS incubation buffer+viable cell marker (BD Viaprobe). The cells were then analyzed by flow cytometry.

[4] = biological target: T3, CD38 on cells (UniProt P28907 1-300); experiment: FACS on RPMI cells (CD38+/138+)
T3 construct: whole, on cells; Endogenous CD38 on cell lines used in FACS or microscopy; also called DOM11; T10
Description: as §2, §3

[5] = biological target: T2, CD138 on cells; experiment: FACS on HUVEC cells (CD38-/CD138+)
Description: as §2, §3

[6] = biological target: T4, CEA immobilised on Biacore CM5 chip (UniProt P06731 35-685, limits assumed); experiment: Biacore, CEA immobilised
T4 construct: also called DOM13
T4 sequence (looked up): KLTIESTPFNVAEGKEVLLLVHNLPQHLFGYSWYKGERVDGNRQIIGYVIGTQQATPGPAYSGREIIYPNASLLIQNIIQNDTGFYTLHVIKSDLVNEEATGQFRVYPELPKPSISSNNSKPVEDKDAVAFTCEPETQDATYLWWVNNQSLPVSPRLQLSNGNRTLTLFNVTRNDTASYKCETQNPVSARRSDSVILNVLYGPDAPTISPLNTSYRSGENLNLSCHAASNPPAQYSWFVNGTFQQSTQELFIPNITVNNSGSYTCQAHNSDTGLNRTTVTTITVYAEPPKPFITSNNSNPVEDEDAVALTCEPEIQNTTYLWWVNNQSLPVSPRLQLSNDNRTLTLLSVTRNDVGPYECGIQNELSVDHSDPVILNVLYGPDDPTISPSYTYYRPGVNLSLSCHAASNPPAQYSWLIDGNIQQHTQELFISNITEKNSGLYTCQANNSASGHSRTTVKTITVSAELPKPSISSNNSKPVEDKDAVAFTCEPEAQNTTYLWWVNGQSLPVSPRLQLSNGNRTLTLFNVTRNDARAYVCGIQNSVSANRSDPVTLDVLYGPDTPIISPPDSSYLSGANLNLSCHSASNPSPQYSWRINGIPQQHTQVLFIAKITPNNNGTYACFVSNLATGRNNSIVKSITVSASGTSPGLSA
Description: as §1

[7] = biological target: T5, NCA on H647 cells (UniProt P40199 35-320, limits assumed); experiment: FACS on H647 cells (CEA-/NCA+)
T5 construct: whole, on cells; Its identity is an inference
T5 sequence (looked up): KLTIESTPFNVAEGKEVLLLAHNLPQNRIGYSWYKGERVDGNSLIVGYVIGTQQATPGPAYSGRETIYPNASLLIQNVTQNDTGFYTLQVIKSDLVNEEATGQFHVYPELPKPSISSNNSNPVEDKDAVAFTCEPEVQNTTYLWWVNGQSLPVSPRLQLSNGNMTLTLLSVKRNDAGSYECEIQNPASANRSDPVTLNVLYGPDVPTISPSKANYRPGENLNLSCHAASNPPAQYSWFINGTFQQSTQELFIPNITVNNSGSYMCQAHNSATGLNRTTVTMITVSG
Description: as §2, §3

[8] = biological target: CD138 and CD56 co-expressed on cells (CD138+/CD56+ double positive cells) (UniProt P18827); experiment: cell-based or functional assay
[9] = biological target: T6, CD38 and CD138 co-expressed on cells (CD38+/CD138+ double positive cells) (UniProt P28907 1-300; P18827 23-310); experiment: cell-based or functional assay
T6 construct: whole, on cells; Two separate membrane proteins on the same cell, not a complex; also called RPMI8226; OPM2

[10] = biological target: T6, CD38 and CD138 co-expressed on cells …; experiment: FACS cell binding titration on OPM2 cells (CD38+/CD138+), arithmetic mean fluorescence. The table prints no unit; the unit is taken from the x axis 'log conc in nm' (nanomolar).
Description: as §3
Anti-CD38 and anti-CD138 affinity matured dAbs were paired to create dual specific ligands by cloning an anti-CD38 dAb and an anti-CD138 dAb into a dual expression vector. To determine if the increased affinity of the monomers was reflected in increased binding affinity of the dual specific ligand, a range of the affinity matured anti-CD38 dAbs were paired with the anti-CD138 dAb DOM12-45, a range of affinity matured anti-CD138 dAbs were paired with anti-CD38 dAbs, and a range of affinity matured anti-CD38 dAbs and affinity matured anti-CD138 dAbs were paired. All dual specific ligands were expressed in E. coli and purified using protein L agarose followed by Resource S cation exchange chromatography when required. The binding affinity of the dual specific ligands was assessed by FACS as described previously. In this study, a range of concentrations was used to allow determination of EC50.

B1: DOM11-30 (other)
chain: DIQITQSPSSLSASVGDRITITCRASQKIENDLAWYQQKPGKAPKLLIYYTSILQSGVPSRFSGSGSGTDFTLTISSLQPEDFATYYCQQRRYVPATFGQGTKVEIKR
notes: Anti-CD38 dAb monomer
Q: Which Kd [1] does the source give for B1 here?
A: 190 to 230 nM

Q: What about the Kd [2] of the same binder?
A: 150 nM

B2: DOM12-17 (other)
chain: DIQMTQSPSSLSASVGDRVTITCRASQSIGNNLLWYQQKPGKAPKLLIYYTSRLQSGVPSRFSGSGSGTDFTLTISSLQPEDFATYYCQQRRTHPHTFGQGTKVEIKR
notes: Anti-CD138 dAb monomer
Q: Does B2 bind [3]?
A: binds

B3: DOM11-7 (other)
chain: DIQMTQSPSSLSASVGDRVTITCRASQYINTLLSWYQQKPGKAPKLLIYAQSRLQSGVPSRFSGSGSGTDFTLTISSLQPEDFATYYCQQFAFRPYTFGQGTKVEIKR
notes: Anti-CD38 dAb monomer
Q: Does B3 bind [4]?
A: binds

Q: Does B3 bind [5]?
A: no binding

B4: DOM13-25 (other)
chain: DIQMTQSPSSLSASVGDRVTITCRASQSIGPWLSWYQQKPGKAPKLLIYQVSRLQSGVPSRFSGSGSGTDFTLTISSLQPEDFATYYCQQNLAPPYTFGQGTKVEIKR
notes: Anti-CEA dAb monomer
Q: How did the Kd [6] turn out when B4 was run?
A: 100 to 200 nM

Q: Does B4 bind [7]?
A: no binding

B5: DOM14-23/DOM12-45 anti-CD138/anti-CD56 dual specific ligand (bispecific antibody, part only; not given: linker between dAbs, not shown: small tags and cut ends)
chain, part: DIQMTQSPSSLSASVGDRVTITCRASQDIFPFLNWYQQKPGKAPELLIYRASILHSGVPSRFSGSGSGTDFTLTISSLQPEDFATYYCQQIARSPRTFGQGTKVEIKRDIQMTQSPSSLSASVGDRVTITCRASQDIGDRLRWYQQKPGKAPKLLIYHGSRLESGVPSRFSGSRSGTDFTLTISSLQPEDFATYYCQQQWFRPYTFGQGTKVEIKR
Q: How did the % internalized [8] turn out when B5 was run?
A: 43%

B6: DOM13-59 (other)
chain: DIQMTQSPSSLSASVGDRVTITCRASQKIMTHLRWYQQKPGKAPKLLIYGGSHLQSGVPSRFSGSGSGTDFTLTISSLQPEDFATYYCQQTWVSPMTFGQGTKVEIRR
notes: Anti-CEA dAb monomer
Q: For B6, which Kd [6] is on record?
A: 400 to 800 nM

Q: Does B6 bind [7]?
A: no binding

B7: DOM11-30/DOM12-45 anti-CD38/anti-CD138 dual specific ligand (bispecific antibody, part only; not given: linker between dAbs, not shown: small tags and cut ends)
chain, part: DIQITQSPSSLSASVGDRITITCRASQKIENDLAWYQQKPGKAPKLLIYYTSILQSGVPSRFSGSGSGTDFTLTISSLQPEDFATYYCQQRRYVPATFGQGTKVEIKRDIQMTQSPSSLSASVGDRVTITCRASQDIGDRLRWYQQKPGKAPKLLIYHGSRLESGVPSRFSGSRSGTDFTLTISSLQPEDFATYYCQQQWFRPYTFGQGTKVEIKR
Q: With B7 as the binder, how does the % internalized [9] read?
A: 8%

B8: DOM12-26 (other)
chain: DIQMTQSPSSLSASVGDRVTITCRASQDIFTKLRWYQQKPGKAPRLLIYAGSRLQSGVPSRFSGSGSGTDFTLTISSLQPEDFATYYCQQVKQKPWTFGQGTKVEIKR
notes: Anti-CD138 dAb monomer
Q: Does B8 bind [3]?
A: binds

B9: DOM13-74 (other)
chain: DIQMTQSPSSLSASVGDRVTITCRASQPIKMMLSWYQQKPGKAPKLLIYNNSTLQSGVPSRFSGSGSGTDFTLTISSLQPEDFATYYCQQYRRWPYTFSQGTKVEIKR
notes: Anti-CEA dAb monomer
Q: For B9, which Kd [6] is on record?
A: 100 to 200 nM

Q: Does B9 bind [7]?
A: no binding

B10: DOM 11-3-15/DOM 12-45-2 (bispecific antibody, V domains shown)
V domain 1: DIQMTQSPSSLSASVGDRVTITCRASQNIDSRLSWYQQKPGKAPKLLIYRASVLQSGVPSRFSGTGSGTDFTLTISSLQPEDFATYYCQQWDMFPLSFGQGTKVEIKR
V domain 2: DIQMTQSPSSLSASVGDRVTITCRASQDIGGRLRWYQQKPGKAPKLLIYHGSRLDSGVPSRFSGSRSGADFTLTISSLQPEDFATYYCQQQWYRPYTFGQGTKVEIKR
Q: B10 was tested. Which EC50 [10] did it give?
A: 16.7 nM

B11: DOM 11-3-20/DOM 12-45-2 (bispecific antibody, V domains shown)
V domain 1: DIQTTQSPSSLSASVGDRVTITCRASQNIDSRLSWYQQKPGKAPKLLIYRSSVLQSGVPSRFSGSGSGTDFTLTISSLQPEDFATYYCQQWDMFPLMFGQGTKVEIKR
V domain 2: DIQMTQSPSSLSASVGDRVTITCRASQDIGGRLRWYQQKPGKAPKLLIYHGSRLDSGVPSRFSGSRSGADFTLTISSLQPEDFATYYCQQQWYRPYTFGQGTKVEIKR
Q: Which EC50 [10] does the source give for B11 here?
A: 11.9 nM

B12: DOM 11-3-23/DOM 12-45-2 (bispecific antibody, V domains shown)
V domain 1: DIQMTQSPSSLSASVGDRVTITCRASQNIDSRLSWYQQKPGKAPKLLIYRASVLQSGVPSRFSGSGSGTDFTLTISSLQPEDFATYYCQQWDMFPLAFGQGTRVEIKR
V domain 2: DIQMTQSPSSLSASVGDRVTITCRASQDIGGRLRWYQQKPGKAPKLLIYHGSRLDSGVPSRFSGSRSGADFTLTISSLQPEDFATYYCQQQWYRPYTFGQGTKVEIKR
Q: With B12 as the binder, how does the EC50 [10] read?
A: 11 nM
